{"source": "paper PMC2645917", "about": "(2008)", "target": "F29 7-36 (Homo sapiens, UniProt P01275, Ile29 replaced by hexafluoroleucine, C-terminal amide)", "test": "competition binding with [125I]-Ex"}
{"binder": "GLP-1 receptor (protein) RPQGATVSLWETVQKWREYRRQCQRSLTEDPPPATDLFCNRTFDEYACWPDGEPGSFVNVSCPWYLPWASSVPQGHVYRFCTAEGLWLQKDNSSLPWRDLSECEESKRGERSSPEEQLLFLYIIYTVGYALSFSALVIASAILLGFRHLHCTRNYIHLNLFASFILRALSVFIKDAALKWMYSTAAQQHQWDGLLSYQDSLSCRLVFLLMQYCVAANYYWLLVEGVYLYTLLAFSVLSEQWIFRLYVSIGWGVPLLFVVPWGIVKYLYEDEGCWTRNSNMNYWLIIRLPILFAIGVNFLIFVRVICIVVSKLKANLMCKTDIKCRLAKSTLTLIPLLGTHEVIFAFVMDEHARGTLRFIKLFTELSFTSFQGLMVAILYCFVNNEVQLEFRKSWERWRLEHLHIQRDSSMKPLKCPTSSLSSGATAGSSMYTATCQASCS", "values": [{"measurement": "IC50", "value": 13.4, "unit": "nM"}]}
